Test results as given in patent publication US8034572B2, “Receptor for GDNF family ligands” (priority 2006, dated 2011).

Columns and labels:
[1] = test system: E15 mouse cortical neurons; test: Cortical neurons migration assay (transfilter); type: cell-based; conditions: 16 hours
Procedure: Cortical lobes from E15 mouse brains were dissected under a stereomicroscope and dissociated using a 20 G needle and a syringe in DMEM containing 10% FCS. The cortical preparation was spun down at 1000 rpm for 5 min and the pellet was washed with culture medium containing serum. The pellet was carefully resuspended and the preparation was allowed to sediment for five more minutes before the cleared supernatant was collected. The cells in the supernatant were allowed to recover in serum-containing DMEM for 30-60 min. Recovered cells were washed once with the assay medium (DMEM with 10 mg/ml BSA, L-glutamine and antibiotics) and resuspended in the same medium.
Transwell filters (Costar) with 12-μm pore size or polycarbonate filters saturated with 100 μg/ml poly-L-lysine were coated with GDNF or ΔN-GDNF in 1 μM, 10 μM and 100 μM concentrations overnight at 4° C. and equilibrated with assay medium 30 min in +37° C. incubator prior to use. The spontaneous and random migratory activity of neural cells was controlled with uncoated filters.
Embryonic cortical cells were plated on the filters at 150000 cells per filter and left to migrate for 16 hours. […] The number of cells that had migrated to the coated surface of the filters was calculated using the inverted light microscope Olympus IX71.

[2] = test system: rat embryonic hippocampal neurons; test: Neurite outgrowth assay in E17 rat hippocampal neurons; type: cell-based
Procedure: Hippocampi were dissected from E17 embryonic rat brains under the microscope and transferred to the preparation media (HBBS without Ca^2+ and Mg^2+ supplemented with 1 mM sodium pyruvate (Gibco) and buffered by 10 mM Hepes pH 7.2), then partially digested by papain and triturated in the preparation media supplemented with DNase I. Cells were washed with HBBS containing Ca^2+ and Mg^2+ and transferred to the growth media (Neurobasal media with B27 supplement, 2 mM L-glutamine, 25 μM glutamic acid and penicillin and streptomycin (Gibco)). For enzymatic treatments neurons were kept in the growth media supplemented with 0.2% BSA at +37° C. for one hour. After the treatment cells in the same media were seeded on the protein-coated cover slips (see above) and after 10 min, the media was changed for B27-free media. Neurons were incubated at +37° C., 5% CO2 for 18 hours.
For immunocytochemistry neurons were washed with PBS and fixed with 4% PFA, permeabilized with 0.1% Triton X-100 and stained with rabbit polyclonal antiserum to Protein Gene Product 9.5 (Affiniti), neuron-specific Class III tubulin-βIII clone Tuj1 antibodies (BABCO) or with antibodies against the neurofilament triplet, 13AA8 (Arumäe et al., 1993). Secondary antibodies were goat anti-rabbit or anti-mouse Alexa488-conjugated (Molecular Probes).
The immunostained cultures were viewed using the ×20 objective of a Zeiss Axioplan 2 fluorescent microscope (Zeiss). Neurons with at least two times longer than cell body diameter processes were considered process-bearing. Three cover slips were used in parallel and 100 neurons per cover slip were counted. Results were derived from 3 to 5 independent experiments.

Src family kinase = test: Src kinase phosphorylation assay in SHEP cells; type: cell-based, human; conditions: SHEP cells plated on immobilized protein
Procedure: SHEP cells from 10-cm plates were harvested as described above and plated on GDNF-coated 35-mm Petri dishes. Cells were allowed to sediment for 10 min at room temperature and then transferred to 37° C. for additional 15 min. Cells were lysed in the lysis buffer (TBS, 1% Triton X-100, 0.5% deoxycholic acid, 0.1% SDS, 10% glycerol, 1 mM Na3VO4, 1 mM PMSF and Complete protease inhibitor mixture). Lysates were analyzed on 10% SDS-PAGE and western blots were stained with anti-pY^418Src or anti-pp60Src antibodies (Biosource). Some cells were pretreated with heparinase III or PI-PLC.

SHEP cells = test: SHEP cell adhesion and spreading assay on immobilized proteins; type: cell-based, human; conditions: protein immobilized on plastic microplate
Procedure: Cell adhesion assays were essentially performed as described elsewhere (Weinacker et al., 1994). To prepare protein-coated surfaces the protein of interest (10 μg/ml in PBS) was applied to 96-well ELISA (Greiner) plates or to glass cover slips for 12-18 hours at +4° C. After incubation, the surfaces were washed with PBS and blocked with 1% globulin-free BSA for two hours. Some GDNF coated surfaces were incubated with 20 μg/ml of G-90 (Amgen) GDNF function-blocking antibodies (Xu et al., 1998) for 2 hours at room temperature.
Subconfluent SHEP cells were harvested in PBS supplemented with 10 mM EDTA for 5 min at 37° C. Cells were washed with incubation buffer (RPMI 1640, 0.2% BSA, 15 mM HEPES pH 7.2) and 10000-40000 cells/well plated on the protein coated surface. Plates were centrifuged for 5 min at 10 g and incubated for one hour at 37° C. in 5% CO2. After incubation cells were washed with PBS, fixed with methanol supplemented with crystal violet for 15 min at room temperature and washed again with PBS. The remaining cells were counted using a Leica DMIRB inverted microscope with 10× objective in 5 fields per well.
Some cells were pretreated with heparinase III, PI-PLC (see above), 0.3 U/ml chodroitinase ABC for one hour at 37° C., 5% CO2, or with 20 μg/ml of NCAM blocking antibodies (AB5032, Chemicon Inc.) for 15-30 min on ice.
After one hour of incubation in serum-free medium unattached cells were removed by washing. The remaining cells were stained and counted on Leica DMIRB inverted microscope with a 10× objective in 5 fields per well and the resulting cell number was calculated for the whole well.
Live SHEP cells spreading on immobilized GDNF were imaged for 20 minutes using the Till imaging system with an Imago-QE digital camera (Till Photonics) equipped with heating (+37° C.) and CO2 supply (5%) chambers.

[3] = Binding of ^125I-labeled GFLs to heparin-sepharose column, step NaCl elution
Procedure: GFL iodination was performed as described (Lindahl et al., 2001). Heparin-sepharose column (Amersham Biosciences) chromatography was performed to assess GFL binding to heparin. GDNF, ARTN, NRTN and PSPN were purchased from PeproTech, Ltd. or R&D Systems, Inc. GFLs were enzymatically labeled with carrier-free [^125I]NaI (Amersham Biosciences) by the lactoperoxidase method to a specific activity of 100000-200000 cpm/ng as described elsewhere (Lindahl et al., 2001). 15000-20000 cpm of iodinated GFLs, together with 10 μg of the same unlabeled protein as a carrier, were injected into a 1 ml heparin-sepharose column (Amersham Biosciences) in phosphate buffer pH 7.2 containing 100 mM NaCl and 10 mg/ml of BSA. After washing with 5 volumes of the same buffer, iodinated GFLs were eluted from the column by step elution (2 ml) with increasing NaCl concentration. The resulting fractions were counted on Rackbeta 1214 (LKB/Wallac) scintillation counter.

B1: GDNF: Glial cell line-derived neurotrophic factor, secreted growth factor, GDNF family ligand (protein)
chain: SPDKQMAVLPRRERNRQAAAANPENSRGKGRRGQRGKNRGCVLTAIHLNVTDLGLGYETKEELIFRYCSGSCDAAETTYDKILKNLSRNRRLVSDKVGQACCRPIAFDDDLSFLDDNLVYHILRKHSAKRCGCI
With B1 the “migration of syndecan-3-deficient embryonic cortical neurons” value ([1]; filters coated with GDNF) was “strongly impaired”, the “migration of wild type embryonic cortical cells” value ([1]; filters coated with protein) was “stimulated massive migration” and the “neurite outgrowth on immobilized protein” value ([2]; E17 rat hippocampal neurons, 18 hours) was “stimulated neurite outgrowth”. For the same molecule, the “neurite outgrowth with soluble protein” value ([2]; soluble GDNF added to neurons grown on BSA-matrix) was “failed to induce neurites”, the “activation of Src family kinases (pY^418Src Western blot)” value (Src family kinase) was “induces HSPG-dependent activation of Src family kinases” and the “adherence and spreading of SHEP cells on immobilized protein” value (SHEP cells) was “induced adherence and spreading”. The “NaCl concentration at elution from heparin-sepharose column” value ([3]; ^125I-GFLs, step NaCl gradient) was 0.75 to 1 M and the “binding to heparin-sepharose column” value ([3]; ^125I-labeled GFLs) was “bind strongly to heparin”.
